Laboratory results as given in FireProtDB (doi:10.1016/0167-4838(95)00124-d).

Details: Rattus norvegicus, pH 7.2, Absorbance, MOPS 0.1 M, reversible: Yes; for unfolding free energy / ddG of mutation (higher = less stable): 25 °C, Urea; for Tm / change of melting temperature, mutant - wild type (higher = more stable): Thermal

Cytochrome c, somatic P31A|Y68F, P62898 P31A Y68F, sequence (P62898 whole entry P31A/Y68F): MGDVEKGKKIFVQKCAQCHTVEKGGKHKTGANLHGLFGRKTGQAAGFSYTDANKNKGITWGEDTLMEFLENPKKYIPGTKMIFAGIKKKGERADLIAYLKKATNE
Cytochrome c, somatic H27V, P62898, sequence (P62898 whole entry H27V): as the sequence (P62898 whole entry P31A/Y68F) above, with H27V, A31P, F68Y counted along it
Cytochrome c, somatic P31A, P62898, sequence (P62898 whole entry P31A): as the sequence (P62898 whole entry P31A/Y68F) above, with F68Y counted along it
Cytochrome c, somatic N53I, P62898, sequence (P62898 whole entry N53I): as the sequence (P62898 whole entry P31A/Y68F) above, with A31P, N53I, F68Y counted along it
Cytochrome c, somatic H34F, P62898, sequence (P62898 whole entry H34F): as the sequence (P62898 whole entry P31A/Y68F) above, with A31P, H34F, F68Y counted along it
Cytochrome c, somatic H27V|H34F, P62898 H27V H34F, sequence (P62898 whole entry H27V/H34F): as the sequence (P62898 whole entry P31A/Y68F) above, with H27V, A31P, H34F, F68Y counted along it
Cytochrome c, somatic Y68F, P62898, sequence (P62898 whole entry Y68F): as the sequence (P62898 whole entry P31A/Y68F) above, with A31P counted along it
Cytochrome c, somatic wild type, P62898, sequence (P62898 whole entry): as the sequence (P62898 whole entry P31A/Y68F) above, with A31P, F68Y counted along it
Cytochrome c, somatic P31V, P62898, sequence (P62898 whole entry P31V): as the sequence (P62898 whole entry P31A/Y68F) above, with A31V, F68Y counted along it
Cytochrome c, somatic H27V|N53I, P62898 H27V N53I, sequence (P62898 whole entry H27V/N53I): as the sequence (P62898 whole entry P31A/Y68F) above, with H27V, A31P, N53I, F68Y counted along it

Cytochrome c, somatic N53I, P62898
unfolding free energy (structure 1I5T): 6.36 kcal/mol
Tm (structure 1I5T): 80 °C
change of melting temperature, mutant - wild type (higher = more stable) (structure 1I5T): 20 °C

Cytochrome c, somatic H34F, P62898
ddG of mutation (higher = less stable) (structure 1I5T): -0.67 kcal/mol
unfolding free energy (structure 1I5T): 10.2 kcal/mol
Tm (structure 1I5T): 69 °C

Cytochrome c, somatic wild type, P62898
unfolding free energy: 9.5 kcal/mol
Tm: 60 °C

Cytochrome c, somatic H27V, P62898
ddG of mutation (higher = less stable) (structure 1I5T): 3.78 kcal/mol
unfolding free energy (structure 1I5T): 5.72 kcal/mol
Tm (structure 1I5T): 50 °C
change of melting temperature, mutant - wild type (higher = more stable) (structure 1I5T): -10 °C

Cytochrome c, somatic P31A, P62898
ddG of mutation (higher = less stable) (structure 1I5T): 5.74 kcal/mol
unfolding free energy (structure 1I5T): 3.76 kcal/mol
Tm (structure 1I5T): 51 °C
change of melting temperature, mutant - wild type (higher = more stable) (structure 1I5T): -9 °C

Cytochrome c, somatic Y68F, P62898
unfolding free energy (structure 1I5T): 7.19 kcal/mol
Tm (structure 1I5T): 90 °C
change of melting temperature, mutant - wild type (higher = more stable) (structure 1I5T): 30 °C

Cytochrome c, somatic H27V|N53I, P62898 H27V N53I
ddG of mutation (higher = less stable) (structure 1I5T): 1.86 kcal/mol
unfolding free energy (structure 1I5T): 7.64 kcal/mol

Cytochrome c, somatic P31V, P62898
Tm (structure 1I5T): 49 °C
change of melting temperature, mutant - wild type (higher = more stable) (structure 1I5T): -11 °C

Cytochrome c, somatic H27V|H34F, P62898 H27V H34F
ddG of mutation (higher = less stable) (structure 1I5T): 2.15 kcal/mol
unfolding free energy (structure 1I5T): 7.35 kcal/mol
Tm (structure 1I5T): 53 °C
change of melting temperature, mutant - wild type (higher = more stable) (structure 1I5T): -7 °C

Cytochrome c, somatic P31A|Y68F, P62898 P31A Y68F
unfolding free energy (structure 1I5T): 6.74 kcal/mol
Tm (structure 1I5T): 62 °C
change of melting temperature, mutant - wild type (higher = more stable) (structure 1I5T): 2 °C
